{"source": "the DeepSol protein solubility set"}
{"assay": "soluble on expression in E. coli; label from the status in PepcDB or PDB records"}
{"sequence": "TVAVSQIVEHPALDATRQGLLDGLKAKGYEEGKNLEFDYKTAQGNPAIAVQIARQYVGESPDVLVGIATPSAQALVSATRTIPVVFTAVTDPVGAKLVKSMKQPGKNVTGLSDLSPVAQHVELIQEILPQVKSIGVVFNPGEANAVTLVNLLKESAEAKGIKVVEATALKSADVQSATQAIAAKSDILYAPTDNTVASAIEGMIVAANQAKKPVFGGATSYVEKGAIAGLGFDYYQVGVQTADYVAAILDGQEPGKLDVKVATGSDLVINESAASKLGIQLPSSVVQRATSMQ", "soluble on expression in E. coli": "not soluble"}
{"sequence": "MSLENNKAKMNEKEEIIFNSIRKNPYISQQELADILDLSRPTVANLISGLIKKGRILGKAYILNEAKQIVCIGGANVDRKFYIKDKAQLATSNPVRSTQSAGGVARNVGENLGRLGKEVILLTACGTDSDWEAVKNASNTYMNLDYVTAFPSIATGSYTAVLENNGDLLVALADMDAYDHLTPDVLAKNEGLLSQASAIIADLNCPKETLEYLGSFAEINSIPLVLVPVSSPKMSHLPERLDHVTWLICNRDESETHLEMTIENDEDWRLAAQKWLDLGVKNVIVTNGSKGAVAANNAEGIIFEPAIVIENIVDVTGAGDAFCSAVIYAWLEGKSLQEILKAGSVNAARTLESEYTVRQNLSTSQLQKDLEEFKEGHHHHHH", "soluble on expression in E. coli": "soluble"}
{"sequence": "GPGSMQSASSRVPRKPAAASNLGKPSSSGRFTKPNRPQPTSSFSKTAQPDMTGRYGTSTALVASTAASHFTAGARGQSTPFVGLADRTGQEGSVFGLRAPQNDATGAAAHTKTRQAARTKVVDDASTPVVVVGPERDSVPFRLCCEALAEGCVQTYMHLFELAHRDPVCVDTLSRKFFNVPDDRLAWVQQQLSAVEVLRRQSEFEQVFTHCEQLANYFEKEGDYAEAAWYHEMVLHYMMESLDRTLEQRARHVYATFQERQGHLEEAAALYDAMYRLAVALRDEATLQDASCCLVRVHQALGETLKFSDPAAAARHYATAAEAAVRSKNVVDEGSAYSALGDVSEARGDLPLALKYQRSCRAVAQQNDLKPQECRATLRVADLEERLGLKLEASTTLHEALQLAKELGAPRQLCIATMQLGEAYRSRNQEGEALQCFDESFAAAVEAGDQELIDTVRIAMGFARGDYYLTHAYGGKGYLHLVYTDIRAQLAWMSGGTL", "soluble on expression in E. coli": "not soluble"}
{"sequence": "MGSDKIHHHHHHAAEGNDKKQDLIVKTTQAVPVSHQGDKEFSFIARPFRTSELSFRVGGPIDRFDVYAGNRYQQGSIIAEIDPRDFRIRKERAEAIYHQAKAEFERIQKLYGKGNVSASTYEKAKADYITAKTTFNTASYELEDTHLIAPFNGYVGEVYIEKFQDVKATQPIISFIDIDQLKLEIYVTQDIARAVQALDTIQVRFDAQPDKVYNAKIMEISKGTTRNNLSYLLTALLPNKEGKLLAGMSGKASLNAPSVSTLSQGAAIPQTALCHRPTEGDYLWVVNSKTQQVTKRKVKKGDLLPNGYVSITEGLYPDETVANSGLRFLSDGMKISVENE", "soluble on expression in E. coli": "not soluble"}
{"sequence": "MEIQFLGTGAGQPAKARNVSSLVLKLLDELNEIWMFDCGEGTQRQILETTIKPRKIRKIFITHLHGDHVFGLPGFLSSRAFQANDEQTDVDIYGPVGIKHLVMASIRTSGAHLPYHIHFHEFDAKHLGKILETDKFMVYAEKLDHTIFCVGYRVVQKDLEGTLDAEKLKAAGLPFGPLFGRVKNGQDVVLEDGTTIIAKDYISAPKKGKVITILGDTRKTDASIRLALGADVLVHESTYSKGDENLARRHGHSTNTEAARVAKAASVKKLLLNHISARFLSHDISRMRDDAQEIFTDVHIVRDLEEVKLLEHHHHHH", "soluble on expression in E. coli": "not soluble"}
{"sequence": "MVIWFFYGFRKIMHLSLKRIIVKCKMSQLDRTSLIQYFNSNGVLISPEALDKLIKYSSSSLIEDLIKNSDGYIDEKYVERYVSRPKVRNDYEVYLPDVRFNASIEDFRKMFVSKYEKLSKIITSSSSMRGSISIKTAKRSQGEVKVVGMVSEVSMTKNGHKRIVIEDLDDSITAIVMKDRGPVNEIILEDEVIGIIGSVSQSSKDPVIFVNEIIRPDIPYRVIDEEKHEPVYVASISDIHVGSKTFRKNEFEAMVRWISGSDPDASRVKYLILSGDVVDGIGVYPDQENDLEILNPLEQYANLAEYLVDVPEDVKVFVMPGNHDTVRLSEPQPVFPGKIRDLFEPNVAFLPNPYNLKLEGKNVLVYHGMSLNDMIELIPGANYDSIGKAIEAILVRRHLSPKYGGNTPMIPSAVDYHVIEEVPDIFITGHIHSHYIGNYKGVRYVNSSTWQSQTEYQKMMNFNPKPSKLTLFDLYSRSVIVKDFDTTLLEHHHHHH", "soluble on expression in E. coli": "not soluble"}
{"sequence": "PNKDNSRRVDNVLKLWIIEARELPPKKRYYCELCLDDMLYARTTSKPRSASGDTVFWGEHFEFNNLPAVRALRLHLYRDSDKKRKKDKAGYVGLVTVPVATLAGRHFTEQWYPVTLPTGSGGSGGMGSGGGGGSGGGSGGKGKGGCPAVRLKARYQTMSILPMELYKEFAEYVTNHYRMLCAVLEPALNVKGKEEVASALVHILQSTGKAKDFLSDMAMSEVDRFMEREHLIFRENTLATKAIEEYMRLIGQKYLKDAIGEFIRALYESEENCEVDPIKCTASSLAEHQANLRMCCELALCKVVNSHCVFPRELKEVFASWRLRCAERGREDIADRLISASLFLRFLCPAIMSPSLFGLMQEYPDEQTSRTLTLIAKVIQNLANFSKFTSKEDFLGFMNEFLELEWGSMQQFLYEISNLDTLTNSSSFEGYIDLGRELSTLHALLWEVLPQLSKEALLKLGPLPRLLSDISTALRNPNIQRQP", "soluble on expression in E. coli": "soluble"}
{"sequence": "MTATSDKVLKIQLRSASATVPTKGSATAAGYDIYASQDITIPAMGQGMVSTDISFTVPVGTYGRIAPRSGLAVKNGIQTGAGVVDRDYTGEVKVVLFNHSQRDFAIKKGDRVAQLILEKIVDDAQIVVVDSLEESARGAGGFGSTGN", "soluble on expression in E. coli": "not soluble"}
{"sequence": "MADGLRVALVAGEASGDILGSGLMQALRARHPDIEFIGVGGPRMEAEGLSSYFPMERLSVMGLVEVLGRLPELLRRRKRLIRTLIEARPDVMIGIDAPDFTLGVEHKLRQAGLRTVHYVSPSVWAWRQKRVLKIREACDLMLALFPFEARFYEEHGVPVRFVGHPLANTIPLQADRAAARARLGLPADGQVLALMPGSRGGEVGKLGALFLDTAQRLLVERPGLRFVLPCASAARREQIEQMLQGREPLPLTLLDGASHEALAACDAVLIASGTATLEALLYKRPMVVAYRVAGLTYRILKRLVKSPYISLPNLLAGRLLVPELIQDAATPQALAATLSPLLDDGSQQVEFFDAIHRALRQDASAQAA", "soluble on expression in E. coli": "not soluble"}
{"sequence": "LRTGIDNVLRAKTGGLIVLGYNENMKGIVDGGFYLDCPFSPASLYELAKMDGAIILNEDGTKILYANTQLNPDNAISSNETGIRHRTAERVAKQTGNLVISISQRRNVITLYHGHL", "soluble on expression in E. coli": "soluble"}
{"sequence": "VTQPSGLKNLLRAAAGALPVVPRTDQLPNRTVTVEELPIDPANVAAYAAVTGLRYGNQVPLTYPFALTFPSVMSLVTGFDFPFAAMGAIHTENHITQYRPIAVTDAVGVRVRAENLREHRRGLLVDLVTNVSVGNDVAWHQVTTFLHQQRTSLSGEPKPPPQKKPKLPPPAAVLRITPAKIRRYAAVGGDHNPIHTNPIAAKLFGFPTVIAHGMFTAAAVLANIEARFPDAVRYSVRFAKPVLLPATAGLYVAEGDGGWDLTLRNMAKGYPHLTATVRGL", "soluble on expression in E. coli": "not soluble"}
{"sequence": "MNTVIDFSAGVPPAVEVKAAGHIGVMRYISPPRLSWMTAKPATRPQIDRCRSAGVDVGFVWQYGGADNPDTMRGRTGGHADATSAQAKLIELGCPHHPVFFAVDFDISLDQWNATAVHYFKAACEVLGRDRVGIYGHSRVISWAVEDQVIADLGGGKHLAWQTPAWSMGERATEAVLYQGAANVKGPAGINIDVNEVLHHEWGQHPVGETRLEKSQEMELAMKPNPNHRGDPLFLPDVLKAFGVKVQEWDGWRDRGHGDFTVIQGVFAHHTGTDKDIPGYIADHPELGLCSQIHLNRDGTAVIVGAGIAYHAGRGSYPGWPTDNANQVAIGIEAASSGTSPWPPAQLDAYYRTCAAILWYLGKPATPQTLLGHKEYSGAAQGKWDPGGIDMNDFRRNVQHYIDNPPFLAADAAHITKEEDPMIQSLINPAKKFAQSTLISIVDATCWQILVLAKAIAKKQGLDPDQILADAITADREGK", "soluble on expression in E. coli": "not soluble"}
{"sequence": "MGSDKIHHHHHHMQQKKTTKEEYQKCVNVVVEYINQHLGEDIDLKSLARISNFSPFYFHRIMKAFLGEPIGTFIVRTRTEAAARLLRYSDIPIADIAYRIGYSSPSSLSKVFRQFYGISPLEYRNNKNFVIMKPAIIRPDLELKSEIKSIPARNVIYIRLSGDYKLNDYGGTWGRLWQFIKEQKLPMGDFSPLCIYHDDPKVTPAEKLRTDVCMVMPVQVAPKGDVGFKTLPAGRYAIFLYKGTYDNLQAVYDTIYGKCLPEMECTLRDEPSAERYLNNPCETAPEELLTEIYIPVE", "soluble on expression in E. coli": "not soluble"}
{"sequence": "MQAAKVDTLSVHSDAMNKEVQVITICPDKAMAGEKCPVLYLLHGYGGNAGTWLGIKPELPRIADKEGIIFVCPDGKNSWYWDSPLNKEYRYETFVSKELVNYIDKNFTTKAERGGRAVTGLSMGGHGSLWLSIRHKDVFGGGGSMSGGLDIRPFPNNWEMKKQLGEEASNKQRWDEHTVINQLDKIKNGDLAVIIDCGCDDFFLEVNKAVHEKLLKKKINHDFIIRPGGHTGRYWNNAIDYQILFFSKFFNK", "soluble on expression in E. coli": "not soluble"}
{"sequence": "PISKMVTAHFVLIHTICHGAWIWHKLKPALERAGHKVTALDMAASGIDPRQIEQINSFDEYSEPLLTFLEKLPQGEKVIIVGEACAGLNIAIAADRYVDKIAAGVFHNSLLPDTVHSPSYTVEKLLESFPDWRDTEYFTFTNITGETITTMKLGFVLLRENLFTKCTDGEYELAKMVMRKGSLFQNVLAQRPKFTEKGYGSIKKVYIWTDQDKIFLPDFQRWQIANYKPDKVYQVQGGDHKLQLTKTEEVAHILQEVADAYA", "soluble on expression in E. coli": "soluble"}
{"sequence": "MGSDKIHHHHHHMSEPVKGAQTVTRALSVLKHISHAHPFGIAIGELSEVSQLDRATTYRLASTLVSFGLVERDAARKYRLGVEAMQLGLSAMRSAPIVGQLQPAMRRLARRTEDTVFLVVRSGDYGHCIHCEEGTYPVKAMVLQVGGMRLLGVGSAGMTLLSMLSDVEVLALYQRHQEEFSRGPSFAKLKRMVGEARERGYADTVDLVTEGVSGVGMRFELSAGSHAAVSVAAIRSRMTPERKKWIAEIIAEELQVSGFTPAYSRVS", "soluble on expression in E. coli": "not soluble"}
{"sequence": "KEFFLAKHAEQKKRHHKYNDTEYNLEPNVKGSPGGLRDIQTILWVARRQYGTLNLHALAGEGFLLGSENALLASSQEFLWKVRYALHMLAGRSEDRLLFDYQVRIAGLLGYEDNDAKLAIERFMQKYYRVVMSIAELSDLIIQHFEEVILSDDDGTPQPINSRFQLHDGYIEATNPNVFRRTPFAMLEIFVLMAQHPEIKGVRADTIRLL", "soluble on expression in E. coli": "not soluble"}
{"sequence": "MRLILPVGLIATTLAIAPVRFDREKVFRVKPQDEKQADIIKDLAKTNELDFWYPGATHHVAAKMMVDFRVSEKESQAIQSALDQNKMHYEILIHDLQEEIEKQFDVKEDIPGRHSYAKYNNWEKIVAWTEKMMDKYPEMVSRIKIGSTVEDNPLYVLKIGEKNERRKAIFMDCGIHAREWVSPAFCQWFVYQATKTYGRNKIMTKLLDRMNFYILPVFNVDGYIWSWTKNRMWRKNRSKNQNSKCIGTDLNRNFNASWNSIPNTNDPCADNYRGSAPESEKETKAVTNFIRSHLNEIKVYITFHSYSQMLLFPYGYTSKLPPNHEDLAKVAKIGTDVLSTRYETRYIYGPIESTIYPISGSSLDWAYDLGIKHTFAFELRDKGKFGFLLPESRIKPTCRETMLAVKFIAKYILKHTS", "soluble on expression in E. coli": "soluble"}
{"sequence": "SDLQAAGAQAQGAAEPSRGPPLPSARGAPPSPEAGFATADHSGQERETEKAMDRLARGTQSIPNDSPARGEGTHSEEEGFAMDEEDSDGELNTWELSEGTNCPPKEQPGDLFNEDWDSELKADQGNPYDADDIQESISQELKPWVCCAPQGDMIYDPSWHHPPPLIPYYSKMVFETGQFDDAED", "soluble on expression in E. coli": "soluble"}
{"sequence": "MGPYFGKVSEVSSNSQTTYLPESADATQVQEQLGDFTDSESIPAIVVMVSDEPLTQQDITQLNEVVAGLSELDIVSDEVSPAIPSEDGRAVQVFVPLNPSAELTESVEKLSETLTQQTPDYVSTYVTGPAGFTADLSALEHHHHHH", "soluble on expression in E. coli": "not soluble"}
